Experimental data as given in paper PMC9478406, “AMPK-related protein kinase ARK5 regulates subcellular localization of RNA-binding protein hnRNP A1 during hypertonic stress” (The Journal of Biological Chemistry, 2022).

Biological target: T1, GST-tagged ARK5 wild type (AMPK-related protein kinase 5) (human, UniProt O60285 1-661)
T1 construct: ARK5 (aka NUAK1), UniProt ID O60285; Printed both as GST-ARK5 and ARK5-GST, so the end of the tag is not clear; also called NUAK1; GST-ARK5; source: U2OS, transfected, in lysate; U2OS, transfected, purified (Pierce GST spin purification kit)
T1 sequence (looked up): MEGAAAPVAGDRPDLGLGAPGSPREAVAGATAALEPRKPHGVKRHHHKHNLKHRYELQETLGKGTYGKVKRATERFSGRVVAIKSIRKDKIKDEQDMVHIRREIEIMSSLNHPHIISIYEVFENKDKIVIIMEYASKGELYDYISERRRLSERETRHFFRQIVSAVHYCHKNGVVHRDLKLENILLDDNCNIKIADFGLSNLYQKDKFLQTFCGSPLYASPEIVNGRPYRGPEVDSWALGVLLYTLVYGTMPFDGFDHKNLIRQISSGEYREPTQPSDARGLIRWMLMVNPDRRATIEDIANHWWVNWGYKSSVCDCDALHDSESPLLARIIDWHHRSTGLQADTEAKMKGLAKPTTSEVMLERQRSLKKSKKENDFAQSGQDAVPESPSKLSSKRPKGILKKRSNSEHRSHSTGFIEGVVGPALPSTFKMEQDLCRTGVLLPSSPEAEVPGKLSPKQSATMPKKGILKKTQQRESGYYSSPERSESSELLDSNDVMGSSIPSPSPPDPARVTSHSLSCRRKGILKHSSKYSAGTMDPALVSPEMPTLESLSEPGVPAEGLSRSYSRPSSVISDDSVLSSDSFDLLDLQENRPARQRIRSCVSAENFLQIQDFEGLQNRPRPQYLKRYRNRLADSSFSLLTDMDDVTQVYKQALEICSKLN
Assay: co-IP; in vivo co-IP: U2OS cells cotransfected with GST-ARK5 (WT or KD) and FLAG-hnRNP A1 (WT, fragments or mutants); lysate in co-IP buffer (25 mM Tris-HCl pH 7.4, 150 mM NaCl, 0.5% Triton X-100), GSH Sepharose beads overnight at 4 °C, immunoblotting
Settings: partners not purified

B1: FLAG-tagged hnRNP A1 wild type (heterogeneous nuclear ribonucleoprotein A1) (natural protein, human, UniProt P09651-2 1-320, looked up)
chain: MSKSESPKEPEQLRKLFIGGLSFETTDESLRSHFEQWGTLTDCVVMRDPNTKRSRGFGFVTYATVEEVDAAMNARPHKVDGRVVEPKRAVSREDSQRPGAHLTVKKIFVGGIKEDTEEHHLRDYFEQYGKIEVIEIMTDRGSGKKRGFAFVTFDDHDSVDKIVIQKYHTVNGHNCEVRKALSKQEMASASSSQRGRSGSGNFGGGRGGGFGGNDNFGRGGNFSGRGGFGGSRGGGGYGGSGDGYNGFGNDGSNFGGGGSYNDFGNYNNQSSNFGPMKGGNFGGRSSGPYGGGGQYFAKPRNQGGYGGSSSSSSYGSGRRF
notes: hnRNP A1, full length, printed length 320 aa (residues 1-320); The printed residue numbers (1-320) fit the 320-residue isoform; also called FLAG-hnRNP A1 WT; A1-WT; source: U2OS, transfected, in lysate; U2OS, transfected, purified separately
**Q.** Does B1 bind?
**A.** binds
